# Measured values: publication PMC4425231
# Columns and labels:
# [1] = target: IκBβ (endogenous, MEF cytoplasmic extract) (mouse (endogenous in MEFs)) (UniProt Q60778); test: kinetic model fitted to immunoblot abundances of IκBs in NFκB-knockout MEFs
# [2] = target: IκBβ (endogenous, MEF cytoplasmic extract) (mouse (endogenous in MEFs)) (UniProt Q60778); test: immunodepletion followed by deoxycholate EMSA
# p50 dimerization domain = p50 dimerization domain (UniProt P25799); test: AUC + SEC
# p50 dimerization domain, sequence (P25799 1-431): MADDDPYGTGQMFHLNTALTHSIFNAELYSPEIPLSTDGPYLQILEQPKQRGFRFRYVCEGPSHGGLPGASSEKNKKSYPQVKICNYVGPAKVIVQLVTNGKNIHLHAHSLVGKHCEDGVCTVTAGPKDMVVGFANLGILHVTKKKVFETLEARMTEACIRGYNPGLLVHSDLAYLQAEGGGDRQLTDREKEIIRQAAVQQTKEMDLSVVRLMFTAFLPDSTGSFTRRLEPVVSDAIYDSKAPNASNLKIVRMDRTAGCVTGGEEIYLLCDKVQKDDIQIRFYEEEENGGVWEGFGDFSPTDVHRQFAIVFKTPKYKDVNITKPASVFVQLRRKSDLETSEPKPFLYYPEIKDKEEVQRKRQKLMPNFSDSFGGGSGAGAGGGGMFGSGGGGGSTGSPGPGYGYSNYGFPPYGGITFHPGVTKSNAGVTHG
# IκBβ (endogenous, MEF cytoplasmic extract) (mouse (endogenous in MEFs)), sequence (Q60778 whole entry, the tested form may be a part): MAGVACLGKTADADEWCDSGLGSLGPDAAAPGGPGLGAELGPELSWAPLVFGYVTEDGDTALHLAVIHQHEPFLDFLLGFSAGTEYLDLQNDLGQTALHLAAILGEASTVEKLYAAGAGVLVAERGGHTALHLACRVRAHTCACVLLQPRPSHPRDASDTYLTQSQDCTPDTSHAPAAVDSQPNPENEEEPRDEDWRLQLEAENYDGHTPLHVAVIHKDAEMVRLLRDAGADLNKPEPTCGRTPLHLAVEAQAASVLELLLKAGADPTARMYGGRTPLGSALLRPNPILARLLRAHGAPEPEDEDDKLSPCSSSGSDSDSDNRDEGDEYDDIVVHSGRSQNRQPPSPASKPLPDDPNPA
Substance,Kd [1] [nM],percent of the dimer bound to this IκB [2] [%],Kd (p50 dimerization domain) [nM]
"RelA:RelA homodimer (endogenous, MEF cytoplasmic extract) (from UniProt Q04207 1-549) (complex)",0.0032,> 50,
RelA dimerization domain (from UniProt Q04207 1-549) (domain or fragment),,,10
